One assay deals with T1, Cy CD3ε/g.
T1 construct: also called cynomolgus monkey CD3εγ on Ba/F3 cells
T1 epsilon: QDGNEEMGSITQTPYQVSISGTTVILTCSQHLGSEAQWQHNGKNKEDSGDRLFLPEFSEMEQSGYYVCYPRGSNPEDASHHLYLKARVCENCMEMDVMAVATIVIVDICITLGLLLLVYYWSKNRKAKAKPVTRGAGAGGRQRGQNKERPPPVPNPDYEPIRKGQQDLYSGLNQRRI
T1 gamma: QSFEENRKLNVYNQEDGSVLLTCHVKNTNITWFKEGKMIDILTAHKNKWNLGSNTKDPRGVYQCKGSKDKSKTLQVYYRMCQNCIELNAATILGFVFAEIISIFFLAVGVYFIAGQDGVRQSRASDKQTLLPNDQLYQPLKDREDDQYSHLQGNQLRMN
As to the kind of experiment: cell-ELISA on Ba/F3 cells expressing cynomolgus monkey CD3εγ, hybridoma culture supernatant (CM).

Another assay concerns the target T2, hCD3ε/g.
T2 construct: also called human CD3εγ on Ba/F3 cells
Nature of the assay: cell-ELISA on Ba/F3 cells expressing human CD3εγ, hybridoma culture supernatant (CM).

Assay [1] deals with T3, CD3ε homodimer protein (human, UniProt P07766 23-126, limits assumed).
T3 construct: also called human CD3ε homodimer protein; CD3e homodimer
Nature of the assay: SPR (Biacore T200, 25°C); CD3ε homodimer immobilized on CM4, one-arm antibody as analyte; first of two CE115HA340 lines (r6, 2.0E-08); the second line (r8) gives 2.7E-08.

Assay [2] addresses T3, CD3ε homodimer protein. As to the kind of experiment: SPR (Biacore T200, 25°C); CD3ε homodimer immobilized on CM4, one-arm antibody as analyte.

T3 sequence (P07766 23-126 limits assumed): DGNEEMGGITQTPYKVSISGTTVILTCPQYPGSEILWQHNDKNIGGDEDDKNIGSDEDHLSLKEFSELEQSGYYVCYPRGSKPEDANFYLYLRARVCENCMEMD
T2 sequence (epsilon, as listed by the source limits assumed, chain 1 of 2): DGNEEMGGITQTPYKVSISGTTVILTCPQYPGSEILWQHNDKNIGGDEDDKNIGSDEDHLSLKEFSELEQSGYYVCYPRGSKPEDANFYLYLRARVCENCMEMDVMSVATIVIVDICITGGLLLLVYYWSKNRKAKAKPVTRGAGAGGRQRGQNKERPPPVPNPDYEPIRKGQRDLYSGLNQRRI
T2 sequence (gamma, as listed by the source limits assumed, chain 2 of 2): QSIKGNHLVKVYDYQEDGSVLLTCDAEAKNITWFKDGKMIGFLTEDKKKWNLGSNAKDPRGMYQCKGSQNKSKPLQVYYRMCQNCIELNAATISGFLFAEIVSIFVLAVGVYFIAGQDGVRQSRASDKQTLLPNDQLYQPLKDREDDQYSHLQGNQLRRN
Protocol for Cy CD3ε/g: (§1) After 3- to 4-day culture, the culture supernatant in each well was recovered, and the rat IgG concentration in the culture supernatant was measured. […] The clone was also evaluated for cross reactivity with monkey CD3εγ by cell-ELISA using attached Ba/F3 cells expressing cynomolgus monkey CD3εγ (FIG. 7).
Protocol for hCD3ε/g: as §1

B1: CE#115 (antibody, V domains shown)
VH: EVQLVETGGSLVQPGKSLKLTCATSGFTFSNAWMHWVRQSPEKQLEWVAQIKAKSNNYATYYAESVKGRFTISRDDSKSNIYLQMNSLKEEDTAVYYCRYVHYGAYYGVDAWGQGTSVTVSS
VL: DVVMTQTPVSMSVSLGGQVSISCRSSQSLVHNNGNTYVSWYIQKPSQSPQLLIYKVSNRFSGISDRFSGSGSGTDFTLKISRVEPDDLGVYYCGQGTQDPYTFGAGTKLELK
notes: also called CE115, rat hybridoma culture supernatant
For B1, the binding result with Cy CD3ε/g and with hCD3ε/g was “binds” in each case.

B2: CE115HA340 / GLS3000 one-arm antibody (antibody, human IgG1, kappa, L234A L235A, N297A)
heavy: QVQLVESGGGLVQPGRSLRLSCAASGFTFSNAWMHWVRQAPGKGLEWVAQIKDKSNNYATYYAESVKGRFTISRDDSKNSIYLQMNSLKTEDTAVYYCRYVHYAAYYGVDAWGQGTTVTVSSASTKGPSVFPLAPSSKSTSGGTAALGCLVKDYFPEPVTVSWNSGALTSGVHTFPAVLQSSGLYSLSSVVTVPSSSLGTQTYICNVNHKPSNTKVDKKVEPKSCDKTHTCPPCPAPEAAGGPSVFLFPPKPKDTLMISRTPEVTCVVVDVSHEDPEVKFNWYVDGVEVHNAKTKPREEQYASTYRVVSVLTVLHQDWLNGKEYKCKVSNKALPAPIEKTISKAKGQPREPQVYTLPPSRCELTKNQVSLSCAVKGFYPSDIAVEWESNGQPENNYKTTPPVLDSDGSFFLVSKLTVDKSRWQQGNVFSCSVMHEALHNHYTQKSLSLSPDYKDDDDK
chain: EPKSSDKTHTCPPCPAPELLGGPSVFLFPPKPKDTLMISRTPEVTCVVVDVSHEDPEVKFNWYVDGVEVHNAKTKPREEQYNSTYRVVSVLTVLHQDWLNGKEYKCKVSNKALPAPIEKTISKAKGQPREPQVCTLPPSRDELTKNQVSLWCLVKGFYPSDIAVEWESNGQPENNYKTTPPVLDSDGSFFLYSKLTVDKSRWQQGNVFSCSVMHEALHNRYTQKSLSLSP
light: DIVMTQSPLSLPVTPGEPASISCRSSQSLVHSNRNTYLHWYQQKPGQAPRLLIYKVSNRFSGVPDRFSGSGSGTDFTLKISRVEAEDVGVYYCGQGTQVPYTFGQGTKLEIKRTVAAPSVFIFPPSDEQLKSGTASVVCLLNNFYPREAKVQWKVDNALQSGNSQESVTEQDSKDSTYSLSSTLTLSKADYEKHKVYACEVTHQGLSSPVTKSFNRGEC
notes: one-arm antibody
For B2, the Kd with CD3ε homodimer protein [1] came out at 0.02 µM; with CD3ε homodimer protein [2], 0.027 µM.

The values above are taken from US20220040297A1 (Chugai, published 2022).
